Consider 4 substances from paper PMC4620370 (Journal of Gynecologic Oncology, 2015).

No end group written: not given here. *: point of attachment. FITC = O=C1OC2(c3ccc(O)cc3Oc3cc(O)ccc32)c2ccc(NC(=S)*)cc21; Ahx = NCCCCCC(=O)O

For series [1], the system named is VEGFR-3 in ovarian carcinoma tissue sections. Also noted: species or system human. The conditions noted are these: FITC-tagged peptide, overnight at 4℃, confocal laser scanning fluorescence microscopy; Fig. 5B, D.
In series [2] the test system is SKOV3 ovarian cancer cells (tumor-bearing mice). The series is described as follows: In vivo targeting of 99mTc-labeled peptide to ovarian tumors. Also noted: species or system Balb/c-nu mice. To be noted: ~3,700 kBq ^99mTc/100 µg peptide, n=6.
The conditions of series [3]: cited from earlier work.
The subject of another series is rhVEGFR-3. Kind of series: Phage screening. It is filed as binding, human. To be noted: negative peptide used as immunofluorescence control.

Take “FITC-(aminohexanoic, AHX)-WHWLPNLRHYAS [FITC-tagged peptide III]”: in series [1], the “interaction with VEGFR-3 (immunofluorescence)” value is “could interact with VEGFR-3”.

Regarding “NHS-MAG3-SHSWHWLPNLRHYAS [^99mTc-labeled peptide]”, in series [2], the “time of peak radioactivity from ovarian tumor cells after tail vein injection” value was determined as 3 h. For “bevacizumab: a monoclonal antibody specific for VEGF”, the “serious adverse events associated” value in series [3] was “venous thromboembolism, hypertension, proteinuria, arterial thrombosis, bleeding, and gastrointestinal perforation”. For the same substance, in series [3] (meta-analysis that included 34 trials), the “risk of fatal adverse events” value is “increased”. As for “{FITC-Ahx}-WHNSLKANYTWG [FITC-labeled negative peptide]”, in the series on rhVEGFR-3, the “binding in the phage screening procedure” value was “negative binding”.
